The supplement of paper PMC6757056
± gives the standard deviation of the averaged measurements.

B1: library; a variant is named by its letters at N, in order (parent)
chain: GCUGUCACCGGUGUAUUACCCUAGUGGUCGACCGGUCUGAUGAGUCUNNNNNNAGACGAAACAGC

Assays:
hypoxanthine [1] = variants of: B1; experiment: normalized RNA/DNA level with ligand (relative to sTRSVctl = 100) (log10 (% of sTRSVctl)); ligand: hypoxanthine (xanthine aptamer); higher = less ribozyme self-cleavage, higher mRNA level; details: ligand concentration (+) RNA-Seq: 5 mM, HEK293T, reporter: mCherry (pCS4076), ligand present: yes
How it was run: (§1)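 Library plasmids carrying ribozyme switches linked to mCherry, or to eGFP in some ligand experiments, were transfected into HEK293T at 4 µg per 6-well well, with any ligand added 1 h earlier. Seventy-two hours on, total RNA was extracted with EDTA and reverse-transcribed, amplified, barcoded and sequenced. RNA level was RNA over DNA reads normalized to a spiked-in non-cleaving sequence or to the top sequences, then scaled and log-transformed. The top set was 25 sequences, the transform was ×100 and log10, and sequences needed ≥100 DNA reads.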

hypoxanthine [2] = variants of: B1; experiment: normalized RNA/DNA level without ligand (relative to sTRSVctl = 100) (log10 (% of sTRSVctl)); ligand: hypoxanthine (xanthine aptamer); higher = less ribozyme self-cleavage, higher mRNA level; details: HEK293T, reporter: mCherry (pCS4076), ligand present: no
How it was run: as §1

| Variant | normalized RNA/DNA level with ligand (log10) (hypoxanthine [1]) | normalized RNA/DNA level without ligand (log10) (hypoxanthine [2]) |
| --- | --- | --- |
| ACUUGC | 1.9727 ± 0.00052 | 1.822 ± 0.0021 |
| AACAUC | 1.95 ± 0.022 | 2.02 ± 0.022 |
| UAUUUU | 1.94 ± 0.044 | 1.86 ± 0.05 |
| UAUUUC | 1.974 ± 0.01 | 1.911 ± 0.019 |
| UAGCCC | 1.956 ± 0.018 | 1.885 ± 0.0052 |
| AUUCAG | 1.87 ± 0.053 | 1.58 ± 0.025 |
| GACUUA | 1.88 ± 0.0036 | 1.84 ± 0.023 |
| UGUGUA | 1.92 ± 0.032 | 1.79 ± 0.058 |
| CGCUGG | 1.889 ± 0.0061 | 1.42 ± 0.024 |
| CCUGAA | 1.98 ± 0.078 | 1.78 ± 0.075 |
| UUUUCU | 1.99 ± 0.052 | 1.9 ± 0.02 |
| UUUUCA | 1.94 ± 0.056 | 1.901 ± 0.012 |
| GGAAGU | 1.91 ± 0.047 | 1.7 ± 0.02 |
| UUUCCG | 1.99 ± 0.063 | 1.83 ± 0.07 |
| CCCCCA | 1.94 ± 0.029 | 1.889 ± 0.0072 |
| AUUGUC | 1.952 ± 0.016 | 1.969 ± 0.015 |
| UUAUAG | 1.89 ± 0.019 | 1.67 ± 0.04 |
| UUAUAU | 1.93 ± 0.027 | 1.85 ± 0.019 |
| AGUGAC | 1.912 ± 0.019 | 1.814 ± 0.012 |
| AAACGC | 1.91 ± 0.063 | 1.68 ± 0.021 |
| GGUGCA | 1.92 ± 0.043 | 1.88 ± 0.05 |
| UUCACU | 1.956 ± 0.0023 | 1.76 ± 0.039 |
| UUUAUG | 1.92 ± 0.027 | 1.772 ± 0.014 |

| Variant | normalized RNA/DNA level with ligand (log10) (hypoxanthine [1]) | normalized RNA/DNA level without ligand (log10) (hypoxanthine [2]) |
| --- | --- | --- |
| UGCUCG | 1.941 ± 0.016 | 1.77 ± 0.046 |
| CUGGGC | 1.98 ± 0.047 | 1.902 ± 0.0037 |
| CUUGCC | 1.9562 ± 0.0012 | 1.884 ± 0.015 |
| CACGGC | 1.965 ± 0.003 | 1.87 ± 0.013 |
| GCUCCC | 1.93 ± 0.043 | 1.84 ± 0.02 |
| AGCAAA | 1.92 ± 0.047 | 1.7327 ± 0.00011 |
| GUGAUA | 1.89 ± 0.073 | 1.75 ± 0.027 |
| CACUUG | 1.95 ± 0.1 | 1.88 ± 0.043 |
| AAUAAC | 1.919 ± 0.0067 | 1.81 ± 0.029 |
| CGUUCA | 1.974 ± 0.012 | 1.758 ± 0.014 |
| CGGGGA | 1.97 ± 0.097 | 1.76 ± 0.035 |
| CGGGAU | 1.94 ± 0.064 | 1.608 ± 0.016 |
| AGCCUA | 1.987 ± 0.019 | 1.87 ± 0.028 |
| CCAGUA | 1.94 ± 0.054 | 1.85 ± 0.038 |
| ACCUGU | 1.9472 ± 0.00096 | 1.81 ± 0.033 |
| CAAGGG | 1.72 ± 0.036 | 1.28 ± 0.043 |
| UUCUGA | 2.03 ± 0.036 | 1.834 ± 0.0034 |
| AGCUGU | 1.938 ± 0.0047 | 1.75 ± 0.028 |
| CGCACC | 1.93 ± 0.093 | 1.9 ± 0.028 |
| CGCACU | 2 ± 0.11 | 1.89 ± 0.066 |
| GAUGCA | 1.97 ± 0.036 | 1.83 ± 0.02 |
| GACUGC | 1.905 ± 0.01 | 1.66 ± 0.052 |
| UGUGAU | 1.9 ± 0.026 | 1.77 ± 0.023 |

| Variant | normalized RNA/DNA level with ligand (log10) (hypoxanthine [1]) | normalized RNA/DNA level without ligand (log10) (hypoxanthine [2]) |
| --- | --- | --- |
| GGUCGU | 1.99 ± 0.08 | 1.98 ± 0.092 |
| UCUGUA | 1.95 ± 0.024 | 1.8296 ± 0.0016 |
| CGCCCU | 2.077 ± 0.0049 | 1.952 ± 0.014 |
| CAAUCG | 1.98 ± 0.083 | 1.89 ± 0.019 |
| UUGGCU | 1.98 ± 0.042 | 1.988 ± 0.013 |
| CCCCGA | 1.95 ± 0.059 | 1.81 ± 0.025 |
| GUUAGC | 1.91 ± 0.023 | 1.683 ± 0.0085 |
| UACGUA | 1.88 ± 0.09 | 1.829 ± 0.004 |
| CUCUCU | 1.89 ± 0.034 | 1.904 ± 0.012 |
| CUGGCC | 1.98 ± 0.16 | 1.91 ± 0.042 |
| ACUCGU | 1.95 ± 0.033 | 1.89 ± 0.025 |
| UUGCCU | 2.007 ± 0.018 | 1.99 ± 0.057 |
| UUUUGU | 1.94 ± 0.037 | 1.842 ± 0.011 |
| AUGAGU | 1.87 ± 0.026 | 1.44 ± 0.11 |
| UACGCU | 1.95 ± 0.067 | 1.846 ± 0.012 |
| UGCCCU | 2.003 ± 0.013 | 1.94 ± 0.028 |
| GUGGUC | 1.96 ± 0.038 | 1.79 ± 0.054 |
| UACUUC | 1.98 ± 0.05 | 2 ± 0.058 |
| AGUAAG | 1.82 ± 0.032 | 1.39 ± 0.024 |
| AGACCA | 1.93 ± 0.046 | 1.85 ± 0.015 |
| GUACGC | 1.95 ± 0.033 | 1.84 ± 0.062 |
| GACAUC | 1.97 ± 0.081 | 1.93 ± 0.077 |
| GGACUA | 1.91 ± 0.09 | 1.84 ± 0.023 |

| Variant | normalized RNA/DNA level with ligand (log10) (hypoxanthine [1]) | normalized RNA/DNA level without ligand (log10) (hypoxanthine [2]) |
| --- | --- | --- |
| AAGGCU | 1.9 ± 0.032 | 1.83 ± 0.05 |
| UUUGGA | 1.93 ± 0.027 | 1.67 ± 0.026 |
| UUCUUG | 1.92 ± 0.068 | 1.794 ± 0.016 |
| UUCUUC | 2.01 ± 0.062 | 2.06 ± 0.039 |
| UCCGAC | 1.95 ± 0.022 | 1.796 ± 0.016 |
| UGGGCA | 1.938 ± 0.014 | 1.84 ± 0.056 |
| UGGGCU | 2.05 ± 0.031 | 1.974 ± 0.019 |
| CAGCCU | 2.039 ± 0.0086 | 1.91 ± 0.038 |
| UAUGCU | 1.92 ± 0.013 | 1.85 ± 0.03 |
| CGACUG | 1.94 ± 0.023 | 1.828 ± 0.012 |
| CGACUU | 1.9958 ± 0.0011 | 1.896 ± 0.012 |
| CGACUC | 2.06 ± 0.027 | 2.006 ± 0.0054 |
| UACCCG | 1.93 ± 0.073 | 1.692 ± 0.0093 |
| UGACCC | 2.002 ± 0.0071 | 1.94 ± 0.024 |
| UGACCA | 1.93 ± 0.058 | 1.886 ± 0.0032 |
| CCUAGU | 1.919 ± 0.0097 | 1.872 ± 0.013 |
| AGAUGC | 1.96 ± 0.07 | 1.72 ± 0.072 |
| CACGAU | 1.95 ± 0.027 | 1.78 ± 0.043 |
| CGACGA | 1.93 ± 0.064 | 1.803 ± 0.0041 |
| UGGCAC | 2 ± 0.034 | 1.913 ± 0.019 |
| CGCCUG | 2 ± 0.053 | 1.9 ± 0.04 |
| UAUCGA | 1.92 ± 0.035 | 1.76 ± 0.046 |
| GAAUAU | 1.93 ± 0.043 | 1.8073 ± 0.00093 |

| Variant | normalized RNA/DNA level with ligand (log10) (hypoxanthine [1]) | normalized RNA/DNA level without ligand (log10) (hypoxanthine [2]) |
| --- | --- | --- |
| CGUAGA | 1.958 ± 0.0094 | 1.8 ± 0.021 |
| ACUAGU | 1.88 ± 0.052 | 1.71 ± 0.07 |
| ACUAGC | 1.881 ± 0.0075 | 1.79 ± 0.075 |
| AGUCAC | 1.94 ± 0.06 | 1.883 ± 0.014 |
| CCUGCA | 2.011 ± 0.0089 | 1.9 ± 0.041 |
| AUAGUC | 1.931 ± 0.016 | 1.923 ± 0.019 |
| UGACGC | 1.96 ± 0.045 | 1.83 ± 0.038 |
| GUCGCC | 1.9 ± 0.05 | 1.91 ± 0.08 |
| AUUGAA | 1.91 ± 0.047 | 1.75 ± 0.026 |
| UGCAUC | 2.02 ± 0.031 | 2.04 ± 0.052 |
| UGAUAG | 1.88 ± 0.04 | 1.7 ± 0.041 |
| CACUGA | 1.95 ± 0.049 | 1.83 ± 0.022 |
| GUCACG | 1.9 ± 0.025 | 1.54 ± 0.055 |
| CGGUGC | 1.96 ± 0.052 | 1.8 ± 0.051 |
| GCGUCC | 1.93 ± 0.029 | 1.59 ± 0.039 |
| UGGCGU | 1.961 ± 0.015 | 1.68 ± 0.064 |
| ACUCAC | 1.994 ± 0.0082 | 1.97 ± 0.013 |
| AGUGUC | 1.98 ± 0.11 | 1.88 ± 0.02 |
| UUCCGU | 2 ± 0.039 | 1.85 ± 0.025 |
| AUCCUA | 1.94 ± 0.062 | 1.9 ± 0.043 |
| AAGAGC | 1.9 ± 0.046 | 1.532 ± 0.009 |
| CACGCG | 1.9257 ± 1.5e-05 | 1.88 ± 0.029 |
| CACGCA | 1.92 ± 0.054 | 1.81 ± 0.041 |
